# Source: patent US8785384B2, “Peptide synthesis” (Chemical & Biopharmaceutical Laboratories of Patras, priority 2010, dated 2014)
# Where no end group is shown, it is not given here. [ ]: non-standard residue; d: D form. Met(O) = CS(=O)CC[C@H](N)C(=O)O
# Legend:
# [1] = background statement on earlier attempts at synthetic human relaxins; cited from earlier work
# [2] = Solubility of relaxin B-chains (methionine sulphoxide vs non-oxidised); type: physicochemical, human; conditions: compared with RLX1B and RLX2B respectively / non-oxidised analogue
Substance,solubility of non-oxidised B-chain [1],solubility relative to the corresponding non-oxidised B-chain [2]
"RLX1B: Chain B of human relaxin-1, SEQ ID NO: 3 (KWKDDVIKLCGRELVRAQIAICGMSTWS; listed as Homo sapiens)",highly insoluble or hydrophobic,–
"Met(O)^25-RLX2B: Met(O)^25-human relaxin 2 B-chain, SEQ ID NO: 7; linear (compound 13) or cyclic (compound 14) form not specified",–,higher solubility
"RLX2B: Chain B of human relaxin-2, SEQ ID NO: 5",highly insoluble or hydrophobic,–
"Met(O)^24-RLX1B: Met(O)^24-human relaxin 1 B-chain, SEQ ID NO: 6; linear (compound 9) or cyclic (compound 10) form not specified (KWKDDVIKLCGRELVRAQIAICG[Met(O)]STWS; not fully specified; cysteine pairing not given here; listed as Homo sapiens)",–,higher solubility
